Data published in the DeepSol protein solubility set.

Assay: soluble on expression in E. coli; label from the status in PepcDB or PDB records
For “MSSDDEIYNENNDLDEEFSDDMDQQSGSSGESQGKANYEILDPTALESDMSKTISEVQAILQVEPGICRILLHKFKWNKDRLLDKFYEHSDTTEFLAEAQVIPKTSSSEEAAGSSAPPPGGDAECDVCCSMTRLSGLACAHRACDECWKAYLTEKIVDVGQSEIECMMMDCKLLIEDEKVMSYITDPFVIAAYRKLIISSYVETNSQLKWCPGAGCGKAVKGEPSDREPAVCTCGERFCFACAQDWHDPLSCRHMKMWRKKCSDDSETLNWINANTKPCPKCSVTIEKNGGCNHMSCKSSSCRYEFCWLCLGDWKNHAQCNRYVEDDNKTDSRSLSRKNLQRYLFYYNRFMAHQNSMKLEGKLYAKVEVKMDLMQALSMSWIEVQFLRRAVDALCECRRTLKYAYAFAYYLEANNMTTLFETNQSDLELATEQLSGMLEGDLEDNDLAELKRKVQDKYRYVELRRKKMLDHCAEGVELDSWVFCE”, the “soluble on expression in E. coli” value was “not soluble”. In the case of “MGSDKIHHHHHHMGLALCGAAAQAQEKPNFLIIQCDHLTQRVVGAYGQTQGCTLPIDEVASRGVIFSNAYVGCPLSQPSRAALWSGMMPHQTNVRSNSSEPVNTRLPENVPTLGSLFSESGYEAVHFGKTHDMGSLRGFKHKEPVAKPFTDPEFPVNNDSFLDVGTCEDAVAYLSNPPKEPFICIADFQNPHNICGFIGENAGVHTDRPISGPLPELPDNFDVEDWSNIPTPVQYICCSHRRMTQAAHWNEENYRHYIAAFQHYTKMVSKQVDSVLKALYSTPAGRNTIVVIMADHGDGMASHRMVTKHISFYDEMTNVPFIFAGPGIKQQKKPVDHLLTQPTLDLLPTLCDLAGIAVPAEKAGISLAPTLRGEKQKKSHPYVVSEWHSEYEYVTTPGRMVRGPRYKYTHYLEGNGEELYDMKKDPGERKNLAKDPKYSKILAEHRALLDDYITRSKDDYRSLKVDADPRCRNHTPGYPSHEGPGAREILKRK”, the “soluble on expression in E. coli” value is reported as “not soluble”. For “MDTAGIRLTPKEIVSKLNEYIVGQNDAKRKVAIALRNRYRRSLLDEESKQEISPKNILMIGPTGVGKTEIARRMAKVVGAPFIKVEATKFTEVGYVGRDVESMVRDLVDVSVRLVKAQKKSLVQDEATAKANEKLVKLLVPSMKKKASQTNNPLESLFGGAIPNFGQNNEDEEEPPTEEIKTKRSEIKRQLEEGKLEKEKVRIKVEQDPGALGMLGTNQNQQMQEMMNQLMPKKKVEREVAVETARKILADSYADELIDQESANQEALELAEQMGIIFIDEIDKVATNNHNSGQDVSRQGVQRDILPILEGSVIQTKYGTVNTEHMLFIGAGAFHVSKPSDLIPELQGRFPIRVELDSLSVEDFVRILTEPKLSLIKQYEALLQTEEVTVNFTDEAITRLAEIAYQVNQDTDNIGARRLHTILEKMLEDLSFEAPSMPNAVVDITPQYVDDKLKSISTNKDLSAFIL”, the “soluble on expression in E. coli” value was “not soluble”. In the case of “MGSDKIHHHHHHMTSHRAEFPIKLRFLFEPARYKILYGGRGGAKSWGVARALLIQAAATPLRILCVREFQNSIVESVHHLLKAQIEAIGLNSFYEVHNNVIRGINGSEFIFAGLHSNVTRIKSFEGVDRVWVEEAQTVSKTSWDTLIPTIRKEGSEIWVTYNPELNTDETHQRFVVNPPAGAVVVKINWNDNPWFPEILRREKDGLKARDPDAYQNVWEGNCRVTLEGAVYAKELRLAQEEGRIRSVPYDEAKPVHTFFDLGWADNTSIWFAQTVGNELRLIDYYSNSQMPIQHYIGVLQNKGYMYGTDWLPHDARARTLATGRSVEEIMLAAGRKVRIVPNLSIHDGINAARTIFPRCYFDEQNCAEGLQSLRHYRFDVDRDSGQFSARPLHDYHSHAADAFRYFAMAIEEDKPAASARGINMKGWRA”, the “soluble on expression in E. coli” value is reported as “not soluble”. In the case of “RGFAKIRDERARRDKIHNLIKRKLDPTKRFSSKQQRQLDRLTRESNLKPSELKETIREEVVEELAGAADGDDVDAVIDEAAGITTTYEPIEFEDTTVSVEDTSLGLPSHARPMSELEDLTTFEEDIAEEAATNTPADKPAAKH”, the “soluble on expression in E. coli” value is reported as “not soluble”. In the case of “MRDIDGGTMGYRVGVDIGGSFTDFAVFDEDNGEIKSLKVFSRPDQPGEEVIAGVRMLGERYGIQPEQITYFTHGTTVGINTVIQRKGLKLALFTTENFSDVLELARLKTPDMYHLLSRRPAPLVKRSMVFGIAERMGPDGTVRAPLDEASVERAVRQALDAGAEGIVVSLLHAYRNPAHELRVREIAEALA”, the “soluble on expression in E. coli” value is reported as “not soluble”. With “MKRLRCIREIERQRGTRVIAMIHRQEALTFLGIPIYKFITIEDSEEILRAIRLTPEDMPIDLIIHTPGGLALASEQIALALKEHKAKTTVIIPHYAMSGGSLIALAADEIIMDKNAVMGPVDPQIGQYPAASILEAYYRKGEKVSDETLILVDISKKAIKQMEEFVYELLKDKYGDEKAKEIAKKLTSGTW” the “soluble on expression in E. coli” value was “not soluble”. With “MTLRAAVFDLDGVLALPAVFGVLGRTEEALALPRGLLNDAFQKGGPEGATTRLMKGEITLSQWIPLMEENCRKCSETAKVCLPKNFSIKEIFDKAISARKINRPMLQAALMLRKKGFTTAILTNTWLDDRAERDGLAQLMCELKMHFDFLIESCQVGMVKPEPQIYKFLLDTLKASPSEVVFLDDIGANLKPARDLGMVTILVQDTDTALKELEKVTGIQLLNTPAPLPTSCNPSDMSHGYVTVKPRVRLHFVELGSGPAVCLCHGFPESWYSWRYQIPALAQAGYRVLAMDMKGYGESSAPPEIEEYCMEVLCKEMVTFLDKLGLSQAVFIGHDWGGMLVWYMALFYPERVRAVASLNTPFIPANPNMSPLESIKANPVFDYQLYFQEPGVAEAELEQNLSRTFKSLFRASDESVLSMHKVCEAGGLFVNSPEEPSLSRMVTEEEIQFYVQQFKKSGFRGPLNWYRNMERNWKWACKSLGRKILIPALMVTAEKDFVLVPQMSQHMEDWIPHLKRGHIEDCGHWTQMDKPTEVNQILIKWLDSDARNPPVVSKM” the “soluble on expression in E. coli” value was “soluble”. In the case of “MEQQQRYISVLDIGTSKVLALIGEVQDDDKINIVGLGQAPSRGLRAGMVTNIDATVQAIRQAVNDAELMADTKITHVTTGIAGNHIRSLNSQGVVKIKDGEVTQADIDRAIETAKAINIPPDQKILDAVVQDYIIDTQLGVREPIGMSGVRLDTRVHIITGASTAVQNVQKCIERCGLKSD”, the “soluble on expression in E. coli” value is reported as “not soluble”. In the case of “GQPMNVTLQDDTQTLQEVVVTALGMKRATKALGYAVTEIKSDELNSNVVNPVSALQGKVAGVEISAGDGGLFGSSKILIRGASTLGSNNQPIYVVDGVILDNAIKNGDADWAANDTDWGNELKNLNPDDFESVSVLKGAAATALYGSRGLNGAVVITTKSGKGKK”, the “soluble on expression in E. coli” value is reported as “not soluble”. For “MGSDKIHHHHHHMRIYSFYNENARRETLEEHVATALKLLDSAENSKLVKYGKKLSPEFERAVKLAIIFHDTGKVFFQIKKGYGYMSFRGHEYFSTYIFDVFARRLIKSEIENYEALSELRKICNFSIFFHHHAMNIRMREPEAGSNIKAGLKLLDVLYSEVKRFLEDKEKKALKAALEEVKEKGTANLTGYVKGEIVREVWRNAMDSSKLKRLCYLNLLVLIAADYSSAALNRGGNKTPFGRVVEEFSEFYLK”, the “soluble on expression in E. coli” value was “not soluble”. With “MDAIKKKMQAMKIEKDNALDRADAAEEKVRQITEKLERVEEELRDTQKKMTQTGDDLDKAQEDLSAATSKLEEKEKTVQEAEAEVASLNRRMTLLEEELERAEERLKIATEKLEEATHNVDESERVRKVMENRSLQDEERANTVEAQLKEAQLLAEEADRKYDEVARKLAMVEADLERAEERAEAGENKIVELEEELRVVGNNLKSLEVSEEKALQREDSYEEQIRTVSSRLKEAETRAEFAERSVQKLQKEVDRLEDELVHEKERYKTISEELDSTFQELSGY” the “soluble on expression in E. coli” value was “not soluble”. For “GPGSMIQSDIVSYVGEMGDVPDALLITPLKDRKSSVYLTKYEVARIIGERARQIVNGTSVLLDSQNGCGTGNSLELAEGCADPFAASVDPIHITKLELLQGRIPMIVRRTWPDGRTENIPVNELKVDKMLLDVQH”, the “soluble on expression in E. coli” value was “not soluble”. In the case of “MSLIPIVASSPSPLISGDGDDALRQIGLLHERSAPLGAMMIDHGPDIGERSPVFSMTTIDGVPVTVGRAVSPGRPSLLMFTGPSCPICQKLLPIIRSVAATEGADVILISDGTQAEHREFLRNHPLDGEHYVVSAEIGMRYQVSKVPYGVLLDKDGVIQAKGLCNTREHVESLFETTRVGHSTLQNFLKHGVEDASKHEGHHHHHH”, the “soluble on expression in E. coli” value is reported as “soluble”. With “MAGEGQIRLTDSCVQRLLEITEGSEFLRLQVEGGGCSGFQYKFSLDTVINPDDRVFEQGGARVVVDSDSLAFVKGAQVDFSQELIRSSFQVLNNPQAQQGCSCGSSFSIKL” the “soluble on expression in E. coli” value was “soluble”.
